Data: EP4635986A1 (National and Kapodistrian University of Athens, dated 2025)

Columns and labels:
[1] = target: T1, PEc fragment aa 1-12 (human); experiment: dot blot on nitrocellulose
T1 peptide: YQPPSTNKNTKS

[2] = target: T2, human Ec peptide (PEc), whole, 24 amino acids (human); experiment: dot blot, peptide on nitrocellulose, 2.5 µg/mL MAb
T2 construct: also called human PEc; whole PEc
T2 peptide: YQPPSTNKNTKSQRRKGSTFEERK

[3] = target: T3, PEc fragment aa 13-24 (human); experiment: dot blot, peptide on nitrocellulose, 2.5 µg/mL MAb
T3 construct: also called the last 12 amino acids
T3 peptide: QRRKGSTFEERK

B1: anti-PEc monoclonal antibody (MAb) of Example 1 (antibody, mouse IgG1, kappa, V domains shown)
VH: EVQLQQSGAELVRSGASVKLSCAASGFNLKDYYIHWVKQRPEQGLEWIGWIDPENGDTEYAPKFQGRATMTADTSSNTAYLHLSSLTSEDTAVYYCFANDVDCWGQGTTLTVSS
VL: DVVMTQPPLSLPVSLGDQASISCRSSQSLVHSNGKTYLHWYLQKPGQSPKLLIYKLSNRFSGVPDRFSGSGSGTDFTLKISRVEAEDLGVYFCFQSTHIPYTFGGGSKLEIRR
notes: Obtained from a mouse hybridoma, then expressed recombinantly in CHO cells; Called an IgG MAb; captured with anti-mouse Fc and detected with anti-mouse HRP; also called anti-PEc MAb; anti PEc MAb
Q: Does B1 bind [1]?
A: Result: no binding

Q: Does B1 bind [2]?
A: Result: binds

Q: Does B1 bind [3]?
A: Result: binds
